From US20240342305A1 (published 2024)

Tests used:
[1] = molecular target: T1, recombinant human GPC2 (rhGPC2) (human, UniProt Q8N158 24-554, limits assumed); test: ELISA, antigen coated 100 ng/well, HRP anti-human Fc detection
T1 sequence (looked up): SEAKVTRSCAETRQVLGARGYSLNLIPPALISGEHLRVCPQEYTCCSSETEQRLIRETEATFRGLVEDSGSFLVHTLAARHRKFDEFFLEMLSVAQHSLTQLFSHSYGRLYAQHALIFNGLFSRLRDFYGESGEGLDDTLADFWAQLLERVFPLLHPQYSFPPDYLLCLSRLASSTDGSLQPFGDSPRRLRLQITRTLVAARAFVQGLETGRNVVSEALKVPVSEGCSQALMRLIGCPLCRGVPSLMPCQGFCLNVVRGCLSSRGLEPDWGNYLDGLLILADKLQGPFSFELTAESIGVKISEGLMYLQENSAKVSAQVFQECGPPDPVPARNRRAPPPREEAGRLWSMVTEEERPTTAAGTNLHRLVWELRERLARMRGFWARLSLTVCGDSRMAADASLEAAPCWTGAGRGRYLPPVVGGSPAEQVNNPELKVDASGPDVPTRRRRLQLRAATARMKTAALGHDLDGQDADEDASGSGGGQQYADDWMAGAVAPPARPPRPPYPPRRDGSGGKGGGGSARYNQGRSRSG
Method: (§1) In order to analyze the binding specificity of P7D4 series antibody to GPC3 protein, binding activity of P7D4 series single chain antibody to human GPC family members, including recombinant human GPC1 (rhGPC1), GPC2 (rhGPC2), GPC3 (rhGPC3), GPC5 (rhGPC5) and GPC6 (rhGPC6) (purchased from Andy Biosciences (Shanghai) Co., Ltd.) was detected by ELISA, respectively.
(§2) For this purpose, the above 5 antigens were diluted with 0.1 M NaHCO₃ (pH 9.6) coating solution and each well was coated with 100 ng at 50 μl/well overnight at 4° C. and blocked with 2% (w/v) BSA in PBST for 2 hours at room temperature. The plate was then rinsed for three times with PBST and PBST was removed. Subsequently, 100 ng of each antibody protein in PBST was added to each well plate, and the assay for each sample was performed in duplecate wells. After incubated for 2 hours at 37° C., the plates were rinsed for three times with PBST followed by addition of 100 μl/well HRP-labeled rabbit anti-human Fc antibody (purchased from Shanghai Rui Jin Biotechnology Co., Ltd.) diluted at 1:20000 and incubated at 37° C. for 1 hour. For detection, wells were rinsed for three times with PBST followed by three times with PBS and finally with TMB for development for 10 min. The chromogenic reaction was stopped with 50 μl of 2 M H₂SO₄ per well, and extinction value was measured at 450 nm with enzyme-linked immunodetector (Bio-Rad).

[2] = molecular target: T2, recombinant human GPC6 (rhGPC6) (human, UniProt Q9Y625 24-529, limits assumed); test: as above
T2 sequence (looked up): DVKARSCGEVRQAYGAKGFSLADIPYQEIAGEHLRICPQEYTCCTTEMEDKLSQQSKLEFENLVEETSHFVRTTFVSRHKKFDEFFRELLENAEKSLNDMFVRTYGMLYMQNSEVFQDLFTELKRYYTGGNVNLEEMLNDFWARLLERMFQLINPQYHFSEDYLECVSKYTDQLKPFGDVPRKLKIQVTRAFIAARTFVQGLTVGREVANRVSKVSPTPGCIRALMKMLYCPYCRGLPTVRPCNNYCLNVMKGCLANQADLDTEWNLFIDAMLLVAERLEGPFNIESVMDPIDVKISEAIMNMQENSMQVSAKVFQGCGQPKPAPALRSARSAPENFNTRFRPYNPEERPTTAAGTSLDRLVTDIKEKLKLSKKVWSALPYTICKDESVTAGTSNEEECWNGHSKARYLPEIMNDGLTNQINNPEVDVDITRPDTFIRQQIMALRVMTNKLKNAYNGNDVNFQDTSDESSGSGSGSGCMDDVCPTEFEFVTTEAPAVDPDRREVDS
Method: as §1, §2

[3] = molecular target: T3, recombinant human GPC1 (rhGPC1) (human, UniProt P35052 24-530, limits assumed); test: as above
T3 sequence (looked up): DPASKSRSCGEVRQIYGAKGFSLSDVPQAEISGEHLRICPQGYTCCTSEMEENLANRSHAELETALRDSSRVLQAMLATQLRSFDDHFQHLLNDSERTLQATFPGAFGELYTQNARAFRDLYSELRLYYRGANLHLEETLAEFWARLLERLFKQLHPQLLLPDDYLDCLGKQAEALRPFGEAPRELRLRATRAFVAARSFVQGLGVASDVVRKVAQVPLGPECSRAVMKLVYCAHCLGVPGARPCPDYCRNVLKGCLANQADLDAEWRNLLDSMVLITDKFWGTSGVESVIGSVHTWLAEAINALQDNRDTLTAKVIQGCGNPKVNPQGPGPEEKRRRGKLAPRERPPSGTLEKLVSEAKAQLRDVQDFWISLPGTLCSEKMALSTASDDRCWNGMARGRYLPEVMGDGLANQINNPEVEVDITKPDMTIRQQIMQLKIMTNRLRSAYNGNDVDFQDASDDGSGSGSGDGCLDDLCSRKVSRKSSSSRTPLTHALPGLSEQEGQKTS
Method: as §1, §2

[4] = molecular target: T4, recombinant human GPC5 (rhGPC5) (human, UniProt P78333 25-551, limits assumed); test: as above
T4 sequence (looked up): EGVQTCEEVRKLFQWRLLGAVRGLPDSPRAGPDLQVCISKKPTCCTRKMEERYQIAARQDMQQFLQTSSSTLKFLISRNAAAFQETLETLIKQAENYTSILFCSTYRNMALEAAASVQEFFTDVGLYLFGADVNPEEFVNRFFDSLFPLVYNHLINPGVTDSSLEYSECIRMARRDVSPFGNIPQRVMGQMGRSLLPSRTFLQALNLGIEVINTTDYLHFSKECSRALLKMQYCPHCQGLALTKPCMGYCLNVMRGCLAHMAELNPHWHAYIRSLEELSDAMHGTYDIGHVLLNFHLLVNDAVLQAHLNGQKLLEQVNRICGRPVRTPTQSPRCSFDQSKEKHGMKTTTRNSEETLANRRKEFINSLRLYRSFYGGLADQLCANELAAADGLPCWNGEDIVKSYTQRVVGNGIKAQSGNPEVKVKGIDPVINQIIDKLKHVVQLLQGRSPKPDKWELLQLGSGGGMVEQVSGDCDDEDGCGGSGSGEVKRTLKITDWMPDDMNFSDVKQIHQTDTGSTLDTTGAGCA
Method: as §1, §2

[5] = molecular target: T5, human GPC3 recombinant protein (purchased from Shanghai Rui Jin Biotechnology Co., Ltd.) (human, UniProt P51654 25-559, limits assumed); test: SPR Biacore T200, antibody captured by anti-human IgG (Fc), GPC3 as analyte, single-cycle kinetics, 25 °C
T5 construct: Bought recombinant protein; also called huGPC3; antigen GPC3
Method: To quantitatively analyze the binding of P7D4 series antibodies to GPC3, the affinity and kinetic parameters of P7D4 series single-chain antibodies were measured by capture method using Biacore T200 system (from GE). An anti-human IgG (Fc) antibody (purchased from GE) was coupled to carboxymethyl dextran surface of sensor chip CM5 through primary amino with NHS/EDC coupling according to the manufacturer's instructions. Measurements were performed in 1×HBS-EP+working buffer at 25° C., 30 μl/min, and regeneration condition was 3 M MgCl₂, 10 μl/min for 30 seconds. In each round of the testing cycle, the antibody to be tested is firstly captured onto the chip. GPC3 of a certain concentration flowed over the chip surface. The interaction between human GPC3 and the captured antibody caused the change of the molecular concentration on the surface of the sensor chip which was measured according to changes in SPR Signal and expressed in resonance units (RU). Time vs resonance unit (RU) was plotted. The resulting sensorgram documents the entire reaction including the binding and dissociation processes (FIG. 4). In all single-cycle kinetics, GPC3 concentrations were 5 nM, 10 nM, 20 nM, 40 nM and 80 nM, respectively. The resulting curves were evaluated using Biacore T200 evaluation software and the affinity KD values were calculated.

[6] = molecular target: T5, human GPC3 recombinant protein …; test: SPR Biacore T200, human GPC3 amine-coupled to CM5 (305 RU), antibody as analyte, multi-cycle kinetics, 25 °C
Method: (§3) To quantitatively analyze the binding of antibody Y035 to antigen human GPC3, the affinity and kinetic parameters of antibody Y035 were measured by multi-cycle kinetic assay using Biacore T200 system (from GE). Antigen human GPC3 (purchased from Shanghai Rui-Jin Biotechnology Co., Ltd.) was coupled to carboxymethyl dextran surface of sensor chip CM5 through primary amino with NHS/EDC coupling according to the manufacturer's instructions, and the final amount of the conjugated ligand was 305RU. Kinetic measurements were performed in 1×HBS-EP+working buffer at 25° C., 30 μl/min, and regeneration condition was 10 mM Glycine-HCl (pH2.5), 10 μl/min for 25 seconds. In each round of the testing cycle, antibody Y035 of a certain concentration flowed over the chip surface. The interaction between the antibody and the antigen protein human GPC3 fixed on the chip caused the change of the molecular concentration on the surface of the sensor chip which was measured according to changes in SPR Signal and expressed in resonance units (RU). Time vs resonance unit (RU) was plotted and after RU value of the reference channel without fixed antigen was subtracted, the resulting sensorgram documents the entire reaction including the binding and dissociation processes. In different cycles of kinetic assay, the concentration of antibody Y035 was 6.25 nM, 12.5 nM, 25 nM, 50 nM and 100 nM, respectively. The resulting curves were evaluated using Biacore T200 evaluation software and the affinity KD values were calculated. Using the same method, the affinity and kinetic parameters of the parental murine monoclonal antibody 5A5 prior to humanization of Y035 were also assayed. The binding data of antibodies Y035 and 5A5 to human GPC3 proteins, respectively, are summarized in Table 2, and humanized antibody Y035 binds human GPC3 protein much better than mouse 5A5 after humanization.

[7] = molecular target: T5, human GPC3 recombinant protein …; test: SPR Biacore T200, human GPC3 amine-coupled to CM5, antibody as analyte, multi-cycle kinetics, 25 °C
Method: as §3

B1: P7D4 mutant single chain antibody am42 (scFv, not shown: a dimerising Fc or GST)
scFv: QVQLQESGGGLVQPGRSLRLSCAASGFTFSSYAMHWVRQAPGKGLEWVSAISSSGGSTYYADSVKGRFTISRDNSKNTLYLQMNSLRAEDTAVYYCAKDRRGSHADAFDVWGQGTLVTVSSGGGGSGGGGSGGGGSQSALTQPPSASGSPGQSVTISCTGTSSDVGLMHNVSWYQQYPGKAPKLLIYKSSSRPSGVPDRFSGSKSGTSASLAITGLQAEDGADYYCQSYDSSLRVVFGGGTKVTVLG
binding result [1]: no binding (tested: 100 ng of each antibody protein per well) | binding result [2]: no binding (tested: 100 ng of each antibody protein per well) | binding result [3]: no binding (tested: 100 ng of each antibody protein per well) | binding result [4]: no binding (tested: 100 ng of each antibody protein per well) | Kd [5]: 0.0821 nM | koff [5]: 6.7e-05 s⁻¹ | kon [5]: 816000 M⁻¹ s⁻¹

B2: humanized antibody Y035 (antibody, V domains shown)
VH: EVQLVQSGAEVKKPGASVKVSCKASGYTFSDYEMHWVRQAPGQGLEWMGAIHPGSGDTAYNQRFKGRVTITADKSTSTAYMELSSLRSEDTAVYYCARFYSYAYWGQGTLVTVSA
VL: DIVMTQTPLSLPVTPGEPASISCRSSQSLVHSNGNTYLQWYLQKPGQSPQLLIYKVSNRFSGVPDRFSGSGSGTDFTLKISRVEAEDVGVYYCSQSIYVPYTFGQGTKLEIKR
notes: Whole antibody expressed in 293F from vectors pIH-hu12H (heavy) and pIK-hu12L (light), purified on Protein A, detected with goat anti-human antibody
Kd [6]: 0.0634 nM | koff [6]: 2.51e-05 s⁻¹ | kon [6]: 396000 M⁻¹ s⁻¹

B3: parental murine monoclonal antibody 5A5 (antibody, V domains shown)
VH: QVQLQQSGTELVRPGASVKLSCKALGYTFTDYEMHWVKQTPVHGLEWIGAIHPGSGDTAYNQRFKGKATLTADKSSSTAYMEYSSLTSEDSAVYYCTRFYSYAYWGQGTLVTVSA
VL: DVVMTQTPLSLPVSLGDQASISCRSSQSLVHSNGNTYLQWYLQKPGQSPKLLIYKVSNRFSGVPDRFSGRGSGTDFTLKISRVEAEDLGVYFCSQSIYVPYTFGGGTKLEIKR
notes: Mouse hybridoma antibody purified from ascites on Protein G; also called mouse 5A5
Kd [7]: 0.0819 nM | koff [7]: 2.3e-05 s⁻¹ | kon [7]: 280000 M⁻¹ s⁻¹
